In the supplement of paper PMC9170038:

Test system: MS2 coat protein
Test: apparent KD of MS2 coat protein; designed switch direction (-1 OFF switch, 1 ON switch): 1; higher = weaker reporter binding
Summary of the method: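 Designed RNA switches with common flanks were made on Illumina chips by stalled E. coli RNA polymerase. Titration with SNAP-549-labelled MS2 coat protein doubled from 0.7 or 1.5 nM up to 3 µM. Apparent KD is each design's median over clusters after curve-fitting normalised fluorescence.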

[1] = input ligand: microRNA oligo, concentration not stated
[2] = Eterna round: R95, input ligand: FMN 200 uM
[3] = Eterna round: R95, input ligand: microRNA oligo, concentration not stated
[4] = Eterna round: R95, input ligand: none

| Sequence | apparent KD of MS2 coat protein (input ligand: FMN 200 uM) [nM] | apparent KD of MS2 coat protein [1] [nM] | apparent KD of MS2 coat protein (input ligand: none) [nM] | apparent KD of MS2 coat protein [2] [nM] | apparent KD of MS2 coat protein [3] [nM] | apparent KD of MS2 coat protein [4] [nM] |
| --- | --- | --- | --- | --- | --- | --- |
| AAAAAAAAGUCAGGAUAUGAAUGGAAAGUACAUGAGGAUCACCCAUGUUAUGGAAAAAAAAAACGUUAGAAGGGAUAAAAAAAA [AK SSNG2-V2-1] (Eterna round: R96, puzzle: Same State NG 2) | 61.3 | 90.2 | 62.3 |  |  |  |
| AAAAAACAUGAGGAUCACCCAUGUAAAAAAAUGGGAGGAUAUACAAAAACAAAAAAAAAAGUAGAAGGCCUGAAAA [same state 9] (Eterna round: R96, puzzle: Same State 1) | 59.2 | 478 | 520 |  |  |  |
| AAAAGAAGAAGUAAGGAUAUUCAAAAGAAAACAUGAGGAUCACCCAUGUACCAAAAGAAAGAAAAGAAGAAGGUACACAAGAAAA [Same State 2 #3] (puzzle: Same State 2) |  |  |  | 24.7 | 23.2 | 22.8 |
| AAAAGACAUGAGGAUCACCCAUGUAUGAAAAGUACAGGAUAUCACGCGCUAAAAUGCGAGUGAGAAGGGUGAAAAU [Oronen] (puzzle: Same State 1) |  |  |  | 4350 | 51.3 | 180 |
| AAAAUAAAUACAGGAUAUAGCCGCCUAAAGCGGCUAGAAGGGUAGAUCGAAAUACAUGAGGAUCACCCAUGUGCACGUAAGUGC [Eresesgeti] (Eterna round: R96, puzzle: Same State NG 1) | 775 | 527 | 1350 |  |  |  |
| AAAAUCUACGAAAGUAGAACAAGCUUAAGACAUGAGGAUCACCCAUGUCAUGUCUUAAAACAUGAGGAAACUCAUGA [hsa-mir-208a sensor: 17] (Eterna round: R96, puzzle: Sensor for hsa-mir-208a) | 273 | 182 | 252 |  |  |  |
| AAAAUUGAAUUACAUCUGCUCGUCAUACAACAUGAGGAUCACCCAUGUAACAUCAAACAACCAACCAAACACAAAUC [Ceeslage] (Eterna round: R96, puzzle: Sensor for hsa-mir-208a) | 20.1 | 17.5 | 22.3 |  |  |  |
| AAACGCAGCAUAUCGCUGCGACAUGAGGAUCACCCAUGUACACAGGAUAUCGCAGCAUACCGCCGCGAGAAGGGUGAUCAAGAC [Anonlete] (Eterna round: R96, puzzle: Same State NG 3) | 99.3 | 16.3 | 33.9 |  |  |  |
| AAAGAACAUGAGGAUCACCCAUGUGGAAGAGGCACAGGAUAUCACCUCGCAAGUGCAAGGUGAGAAGGGUGAUGAU [Islaonen] (puzzle: Same State 1) |  |  |  | 123 | 425 | 205 |
| AACAAUCUAUCUGAGGAUAUCAUGAAAUAAACAUGAGGAUCACCCAUGUGCAGGAAAACUGCAUAUGAGAAGGCAGAUUGAUUGA [salish99_ss2_r3_054] (puzzle: Same State 2) |  |  |  | 56 | 2560 | 1280 |
| AACAAUCUAUCUGAGGAUAUCAUGAAAUAAACAUGAGGAUCACCCAUGUUCAGGAAAACUGCAUAUGAGAAGGCAGAUAGAUUGA [salish99_ss2_r3_035] (puzzle: Same State 2) |  |  |  | 10.4 | 16.2 | 15.3 |
| AACAAUCUAUCUGAGGAUAUCAUGAAAUUAACAUGAGGAUCACCCAUGUGCAGGAAAACUGCAUAUGAGAAGGCAGAUAGAUUGA [salish99_ss2_r3_033] (puzzle: Same State 2) |  |  |  | 120 | 1110 | 2020 |
| AACAUGUGGUGUUACAUGAGGAUCACCCAUGUGGCAAAAGCUGAGGAUAUCAUUAAACCCAUGAAUGAGAAGGUAGGAUCACAA [AK SSNG3-V2-20] (Eterna round: R96, puzzle: Same State NG 3) | 85.2 | 124 | 127 |  |  |  |
| AACCCAUCGGGAGGAUAUGGCACCUUAUUGGUGCCAGAAGGUCCAACAUGAGGAUCACCCAUGUGGGAGCCGUCGAAAGACGGC [Fiskers NG1ss - 7] (Eterna round: R96, puzzle: Same State NG 1) | 270 | 66.5 | 293 |  |  |  |
| AACCUACAUGAGGAUCACCCAUGUGUCUAAGGCACAGGAUAUCGACAGGCAAGACGCCUGCGAGAAGGGUGACCUA [Erononer] (puzzle: Same State 1) |  |  |  | 58.7 | 34.4 | 262 |
| AACGUGGGAGCACAGGAUAUGCAUUGCUCCACAUGAGGAUCACCCAUGUAGGCAAAUAGGGAGCAGCAGAAGGGUGGUCCGACAC [Orraonrexe] (puzzle: Same State 2) |  |  |  | 17.3 | 8.24 | 21.8 |

| Sequence | apparent KD of MS2 coat protein (input ligand: FMN 200 uM) [nM] | apparent KD of MS2 coat protein [1] [nM] | apparent KD of MS2 coat protein (input ligand: none) [nM] | apparent KD of MS2 coat protein [2] [nM] | apparent KD of MS2 coat protein [3] [nM] | apparent KD of MS2 coat protein [4] [nM] |
| --- | --- | --- | --- | --- | --- | --- |
| AACUUACGACCACAGGAUAUACUGAGGCGGACAUGAGGAUCACCCAUGUAGGCAAAAUAAGGGCAGUAGAAGGGUGGUCUUUACA [Usbiraxe] (puzzle: Same State 2) |  |  |  | 18.4 | 18.8 | 27.5 |
| AAGAAACAUGAGGAUCACCCAUGUAGAAAUAUGGGAGGAUAUACGAGGACGAAAGUCAAAGUAGAAGGCCUAAGAA [Mat - Same State 1 - Meechl mod - D130] (Eterna round: R96, puzzle: Same State 1) | 21.4 | 54.5 | 63.8 |  |  |  |
| AAGCAGAGGCAAGGAUAUGUGAAGACCCAGCCUAGGCUGGGCACAUGAGGAUCACCCAUGUACAAACAGAAGGUGUAACCAGGC [Eternabot solution 18] (Eterna round: R96, puzzle: Same State NG 2) | 40.5 | 116 | 161 |  |  |  |
| AAGCGCUGUCGAGAGGAUAUGCGGUGAUGGACAUGAGGAUCACCCAUGUUAGCGAUAGCAUUACGGUAGAAGGCUCUACAGCUGA [Mat - Same State 2 - Mod of UCT - D86] (puzzle: Same State 2) |  |  |  | 28.3 | 268 | 272 |
| AAGGUCUUCGUACAGGAUAUGCACUUGUGCACAUGAGGAUCACCCAUGUGGGAAAAGGUCACAGGGCAGAAGGGUAUUUAUAAAA [Erriti] (puzzle: Same State 2) |  |  |  | 39.4 | 66.6 | 103 |
| AAGUAGCGAGAGCUACACAAAAAGUUUGUACAUGAGGAUCACCCAUGUUGUACAAGCUUUUUGCUCGUCUUAAAAAA [Mat - Sensor - JL mod - D14] (Eterna round: R96, puzzle: Sensor for hsa-mir-208a) | 77.4 | 11.6 | 84.1 |  |  |  |
| AAGUGAAUAGUGAUUACAUGAGGAUCACCCAUGUGGUGGAUGCAGGAUAUUAUUAGACCGUACAAUAAGAAGGGCGUAAUCACC [Eternabot solution 44] (Eterna round: R96, puzzle: Same State NG 3) | 226 | 270 | 403 |  |  |  |
| AAUAAUCUAUCUGAGGAUAUCAUGAAAUAAACAUGAGGAUCACCCAUGUGCAGGAAAACUGCAUAUGAGAAGGCAGAUAGAUUGA [salish99_ss2_r3_020] (puzzle: Same State 2) |  |  |  | 43.8 | 551 | 1160 |
| AAUAUAUUAAGUGAGGAUAUCGAGGAAAAAACAUGAGGAUCACCCAUGUGGGUAAAAAAAAAAAGUGAGAAGGUGCUUAAUAUAU [Samwise Clockwise 10 - Jieux - Same State 2] (Eterna round: R96, puzzle: Same State 2) | 34.9 | 40.1 | 69.1 |  |  |  |
| AAUGCACAUGAGGAUCACCCAUGUAAGACAAAGACAGGAUAUGGGCCGCAUGGCUCUGGCCCAGAAGGGUCAGUCG [Biorinin] (puzzle: Same State 1) |  |  |  |  | 19.8 |  |
| AAUUAAGAUUGAGGAUAUCACGUCGAAUAGACGUGAGAAGGCGAUCAUAACAUGAGGAUCACCCAUGUAUUACAUGAAUUAAUU [SSNG1/5-B1] (Eterna round: R96, puzzle: Same State NG 1) | 30.2 | 31.9 | 32.3 |  |  |  |
| AAUUAAUUAAUACAUGAGGAUCACCCAUGUAAUUAUUAGAUCUAGGAUAUCAGCUCGAAUAGAGCUGAGAAGGAGAUCACAUGU [SSNG3/18-B1] (Eterna round: R96, puzzle: Same State NG 3) |  | 14.5 |  |  |  |  |
| ACAAGCUUUUCUGUAUUGAAAGGUGGGAUACAUGAGGAUCACCCAUGUUUUUUUGUUUAUAUUUGUCCUCGUCUUAU [JR_SHM208A_Sub087] (puzzle: Sensor for hsa-mir-208a) |  |  |  | 52.7 | 33.2 | 46.7 |
| ACAUGAGACCUAGGAUAUAUUGUACCUACAUGUGACAUGAGGAUCACCCAUGUGGUAAGUAUGACAUAGAAGGAGGAGAUAUGU [Equivalance 93 - Jieux - Same State NG 2] (Eterna round: R96, puzzle: Same State NG 2) | 31.5 | 27.2 | 54.7 |  |  |  |
| ACAUGAGACCUAGGAUAUCUUGUACCUACAUGUGACAUGAGGAUCACCCAUGUGGUAAGUAUGAUAGAGAAGGAGGAGAUAUGU [Equivalance 55 - Jieux - Same State NG 2] (Eterna round: R96, puzzle: Same State NG 2) | 15.6 | 39.8 | 51.9 |  |  |  |
